How the values were obtained:
[1] = biological target: T1, alpha-thrombin (Homo sapiens, UniProt P00734;P00734 P00734:328-363,P00734:364-622); experiment: FP; 140 mM NaCl, 20 mM Tris acetate, 1 mM CaCl2, 5 mM KCl, 1 mM MgCl2, pH 7.4, room temperature; delta mP +25
[2] = biological target: T2, serum albumin (HSA) (Homo sapiens, UniProt P02768 P02768:25-609); experiment: FP; HSA up to 150 nM; settings: tags: Sigma; label: 5'-fluorescein (6-FAM, C6 linker)
Procedure: (§1) The fluorescence polarization of the reaction mixtures was measured directly using 12×75 mm borosilicate glass test tubes. The maximum change in fluorescence polarization was reported as ΔmP (millipolarization units). As reported below in Table 1, the data represent the average of three readings at ambient temperature.

[3] = biological target: T2, serum albumin (HSA); experiment: FP; HSA up to 247 nM; anisotropy 0.04429 free, 0.04433 with HSA; settings: tags: Sigma; label: 5'-fluorescein (6-FAM, C6 linker)
[4] = biological target: T1, alpha-thrombin; experiment: FP; 140 mM NaCl, 20 mM Tris acetate, 1 mM CaCl2, 5 mM KCl, 1 mM MgCl2, pH 7.4, room temperature; delta mP +52
[5] = biological target: T1, alpha-thrombin; experiment: FP; 140 mM NaCl, 20 mM Tris acetate, 1 mM CaCl2, 5 mM KCl, 1 mM MgCl2, pH 7.4, room temperature; delta mP +55
[6] = biological target: T2, serum albumin (HSA); experiment: FP; HSA up to 1080 nM; settings: tags: Sigma; label: fluorescein tethered at the T7 phosphorothioate via iodoacetamide
Procedure: A thrombin solution was prepared at 600 nM for the highest concentration in the same buffer as was used for Compound 1 in Example 3. Serial dilutions of this solution were then prepared to give a range of concentrations from 0.045 nM to 600 nM.
Compound 6 was then added to a sample of each dilution of thrombin solution and HSA solution to a concentration of 2.3 nM, then vortexed and let stand at room temperature for 15 minutes before fluorescence measurement was taken as described in Example 3. The data from the measurements is presented below as the average of three readings at ambient temperature.

[7] = biological target: neutrophil elastase (Homo sapiens, UniProt P08246 P08246:30-267); experiment: FP; 150 mM NaCl, 2 mM MgCl2, 6 mM KCl, 10 mM Tris, pH 7.0, room temperature; delta mP +30; settings: tags: Athens Research Technology; label: 5'-fluorescein (6-FAM, C6 linker)
Procedure: An elastase solution was prepared from human neutrophil elastase (Athens Research Technology) at 180 nM for the highest concentration in a buffer of 150 mM NaCl, 2 mM MgCl_2, 6 mM KCl, 10 mM TRIS, pH 7.0. Serial dilutions of this solution were then prepared to give a range of concentrations from 0.027 nM to 180 nM.
as §1

[8] = biological target: T2, serum albumin (HSA); experiment: FP; HSA up to 660 nM; settings: tags: Sigma; label: 5'-thiazole orange (C3 linker)
Procedure: as §1

[9] = biological target: T1, alpha-thrombin; experiment: FP; 140 mM NaCl, 20 mM Tris acetate, 1 mM CaCl2, 5 mM KCl, 1 mM MgCl2, pH 7.4, room temperature; delta mP +80
[10] = biological target: T1, alpha-thrombin; experiment: FP; no detectable binding; anisotropy 0.0403 free, 0.0445 with thrombin
[11] = biological target: T2, serum albumin (HSA); experiment: FP; no detectable binding by fluorescence anisotropy; settings: tags: Sigma; label: fluorescein (C6 linker)
Procedure: Compound 4 was the control prepared in Example 1, and as such was added to the thrombin dilutions and HSA dilutions at the same respective concentrations of Compounds 1, 2 and 3 above. Similarly, Compound 4 was then subjected to the same conditions as Compounds 1, 2 and 3, and analyzed with an SLM instrument to determine anisotropy values as described in Example 4 below.

neutrophil elastase, sequence (P08246 30-267, one chain of several): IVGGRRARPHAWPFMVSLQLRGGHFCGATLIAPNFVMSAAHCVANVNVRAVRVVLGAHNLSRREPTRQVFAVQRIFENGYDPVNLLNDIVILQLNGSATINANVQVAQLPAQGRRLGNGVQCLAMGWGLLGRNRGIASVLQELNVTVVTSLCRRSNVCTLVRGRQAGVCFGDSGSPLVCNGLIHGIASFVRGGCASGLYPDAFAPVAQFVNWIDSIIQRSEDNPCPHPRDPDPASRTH

B1: Compound 2 (ssDNA)
DNA: CAGTCCGTGGTAGGGCAGGTTGGGGTGACTTCGTGGAA
For B1, the Kd [1] was 1.5 nM and the binding result [2] was “no binding”.

B2: Compound 1 (ssDNA)
DNA: GGTTGGTGTGGTTGG
With B2 the binding result [3] was “no binding” and the Kd [4] was 2 nM.

B3: Compound 6 (ssDNA)
DNA: GGTTGGTGTGGTTGG
modifications: PS between G6 and T7
For B3, the Kd [5] was 11.1 nM and the binding result [6] was “no binding”.

B4: Compound 5 (ssDNA)
DNA: TAGCGATACTGCGTGGGTTGGGGCGGGTAGGGCCAGCAGTCTCGT
B4 gave a Kd [7] of 2.6 nM.

B5: Compound 3 (ssDNA)
DNA: GGTTGGTGTGGTTGG
For B5, the binding result [8] was “no binding” and the Kd [9] was 5.7 nM.

B6: Compound 4 (scrambled control) (ssDNA)
DNA: GGTGGTGGTTGTGGT
B6: no binding [10]; no binding [11].

— patent US5641629, “Spectroscopically detectable nucleic acid ligands”
